± gives the uncertainty stated by the source.
Test: self-splicing fitness, log relative to wild type (ln ratio); higher = more splicing; Tetrahymena group I intron in knt gene, E. coli kanamycin selection, DiMSum; sequences stand for … in CUCUCU…GGAGGGAAAAGUUAUCAGGCAUGCACCUGGUAGCUAGUCUUUAAACCAAUAGAUUGCAUCGGUUUAAAAGGCAAGACCGUCAAAUUGCGGGAAAGGGGUCAACAGCCGUUCAGUACCAAGUCUCAGGGGAAACUUUGAGAUGGCCUUGCAAAGGGUAUGGUAAUAAGCUGACGGACAUGGUCCUAACCACGCAGCCAAGUCCUAAGUCAACAGAUCUUCUGUUGAUAUGGAUGCAGUUCACAGACUAAAUGUCGGUCGGGGAAGAUGUAUUCUUCUCAUAAGAUAUAGUCGGACCUCUCCUUAAUGGGAGCUAGCGGAUGAAGUGAUGCAACACUGGAGCCGCUGGGAACUAAUUUGUAUGCGAAAGUAUAUUGAUUAGUUUUGGAGUACUCGUGGUCG
How it was run: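 Colonies from six replicate transformations of E. coli BL21(DE3) were pooled and amplicon-sequenced on an Illumina HiSeq 2500. The library placed an intron with all eight P1ex-region nucleotides randomised inside the knt kanamycin-resistance gene on pET-22b(+), and cells grew overnight at 37°C or 30°C on LB agar with or without 25 μg/mL kanamycin (plus 100 μg/mL carbenicillin, 50 μM IPTG, 0.2% rhamnose). Fitness is the DiMSum error-weighted combination of wild-type-normalised replicate fold changes, kanamycin versus none.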

Sequence | self-splicing fitness (ln) (30 °C) | self-splicing fitness (ln) (37 °C)
UGAGAGCAAUAUUACGGCUA | -1.67 ± 0.25 | -0.532 ± 0.35
UGAGAGCAAUAUUACGGGGC | -2.38 ± 0.39 | -2.17 ± 0.46
UGAGAGCAAUAUUACGGGUC | – | -1.33 ± 0.45
UGAGAGCAAUAUUACGGGUU | -2.45 ± 0.24 | -2.85 ± 0.31
UGAGAGCAAUAUUACGGUCG | -1.56 ± 0.083 | -0.464 ± 0.11
UGAGAGCAAUAUUACGGUGA | -2.54 ± 0.36 | -2.73 ± 0.44
UGAGAGCAAUAUUACGGUGU | -2.98 ± 0.24 | -2.36 ± 0.29
UGAGAGCAAUAUUACGUAAG | -3.27 ± 0.23 | -1.67 ± 0.21
UGAGAGCAAUAUUACGUACC | -2.65 ± 0.36 | –
UGAGAGCAAUAUUACGUCCU | -3.05 ± 0.24 | -2.57 ± 0.49
UGAGAGCAAUAUUACGUGAG | -2.43 ± 0.14 | -1.83 ± 0.2
UGAGAGCAAUAUUACGUGGU | -2.67 ± 0.14 | -2.61 ± 0.2
UGAGAGCAAUAUUACGUGUA | -2.07 ± 0.13 | –
UGAGAGCAAUAUUACGUGUU | -3.49 ± 0.25 | -1.36 ± 0.14
UGAUAGCAAUAUUACGAAAG | -3 ± 0.14 | -1.67 ± 0.15
UGAUAGCAAUAUUACGAAGU | -3.67 ± 0.25 | -3.22 ± 0.26
UGAUAGCAAUAUUACGAAUA | -3.62 ± 0.47 | -0.595 ± 0.2
UGAUAGCAAUAUUACGACUU | -0.653 ± 0.17 | -0.431 ± 0.12
UGAUAGCAAUAUUACGAUUU | -1.76 ± 0.1 | -1.13 ± 0.12
UGAUAGCAAUAUUACGCACC | -1.02 ± 0.15 | -0.277 ± 0.22

Sequence | self-splicing fitness (ln) (30 °C) | self-splicing fitness (ln) (37 °C)
UGAUAGCAAUAUUACGCAGA | -3.31 ± 0.24 | -1.38 ± 0.11
UGAUAGCAAUAUUACGCAGG | -3.38 ± 0.24 | -2.27 ± 0.36
UGAUAGCAAUAUUACGCCAA | -3.37 ± 0.27 | -1.85 ± 0.15
UGAUAGCAAUAUUACGCCAC | – | -0.614 ± 0.29
UGAUAGCAAUAUUACGCCCG | 0.00499 ± 0.21 | -0.455 ± 0.2
UGAUAGCAAUAUUACGCCUA | -0.439 ± 0.15 | -0.227 ± 0.16
UGAUAGCAAUAUUACGCGGG | -3.28 ± 0.31 | -1.7 ± 0.25
UGAUAGCAAUAUUACGCUAA | -1.82 ± 0.2 | -0.0947 ± 0.25
UGAUAGCAAUAUUACGCUUC | – | -2.45 ± 0.35
UGAUAGCAAUAUUACGCUUG | -0.924 ± 0.091 | 0.0889 ± 0.14
UGAUAGCAAUAUUACGGAGA | -2.83 ± 0.33 | -1.68 ± 0.42
UGAUAGCAAUAUUACGGAUG | -1.33 ± 0.1 | -0.978 ± 0.12
UGAUAGCAAUAUUACGGCAG | 0.188 ± 0.17 | 0.0746 ± 0.18
UGAUAGCAAUAUUACGGCCA | -0.243 ± 0.14 | 0.424 ± 0.2
UGAUAGCAAUAUUACGGCUC | -2.21 ± 0.15 | -1.29 ± 0.17
UGAUAGCAAUAUUACGGGAU | -2.03 ± 0.17 | -2.15 ± 0.26
UGAUAGCAAUAUUACGGGUU | -3.88 ± 0.23 | -1.98 ± 0.17
UGAUAGCAAUAUUACGGUAC | – | -2.12 ± 0.42
UGAUAGCAAUAUUACGUAAU | -4.31 ± 0.46 | -1.99 ± 0.21
UGAUAGCAAUAUUACGUGUC | -3.92 ± 0.28 | -2.49 ± 0.26

Source: the supplement of paper PMC7877785
